Data published in US8871909B2, “Antibodies inhibiting c-Met dimerization and uses thereof” (Pierre Fabre Medicament, priority 2007, dated 2014).

Experiments:
[1] = target: T1, c-Met-Fc-Tag His (Homo sapiens, UniProt P08581); assay: BIAcore epitope mapping on captured c-Met-Fc; format: binding
T1 construct: c-Met extracellular domain fusion protein (10-15 g/dose/mouse) (R&D Systems, Catalog #358MT); purchased R&D systems 358-MT-CF
Text: A couple of antibodies unable to bind at the same time on the antigen molecule are classified in the same group (identical or neighbouring binding sites). At the opposite when their respective binding sites are sufficiently distant to allow a simultaneous binding of both antibodies these later are classified into two different groups. In such experiments, the antigen is commonly used as the ligand (immobilized on the sensorchip) and the antibodies are used without any labelling as analytes (solution phase).
All the experiments described have been done on a BIAcore X instrument (GE Healthcare Europe GmbH). A CM5 sensorchip (BIAcore) activated by a mouse anti-Tag-6His Mab (R&D System ref. MAB050) has been prepared following the manufacturer instructions by using the amine coupling kit (BIAcore). The running buffer (HBS-EP) and regeneration buffer (Glycine, HCl) are from BIAcore. A recombinant soluble version of the human HGF receptor produced as a chimeric molecule c-Met-Fc-Tag His was from R&D systems (ref. 358-MT-CF). […]
The ability of an antibody “A” to block the binding of an antibody “B” is calculated by the ratio BIA/C=(R2A/B/R1B)×100: where R2A/B is the response corresponding to the binding of the MAb “B” when it was injected after Mab “A” and R1B is the response corresponding to the binding of the MAb “B” when it was injected first. […]

[2] = system: U87-MG; assay: In vivo combination of 224G11 and Temozolomide on U87MG xenograft model; parameters: species or system Athymic nude mice; settings: D22 to D32; Temozolomide 5 mg/kg i.p.
Procedure: U87-MG cells from ATCC were routinely cultured in DMEM medium, 10% FCS, 1% L-Glutamine. Cells were split two days before engraftment being in exponential phase of growth. Five million U87-MG cells were engrafted to Athymic nude mice. […] Mice were treated i.p. either with a loading dose of 2 mg of 224G11 Mab/mouse and then twice a week with 1 mg of antibody/mouse or with 3 injections of Temozolomide (D19, D26, D33) at 5 mg/kg. A third group administered with the combine treatment was also included. Temozolomide was given by i.p. injections. Tumor volume was measured twice a week and calculated by the formula: π/6×length×width×height and animal weights were monitored every day over the period of Temozolomide treatment. Statistical analysis was performed at each measured time using either a t-test or a Mann-Whitney test. […] Results are represented in FIG. 48.

[3] = system: NCI-H441; assay: In vivo combination of 224G11 and Doxorubicin on NCI-H441 xenograft model; parameters: species or system Athymic nude mice; settings: D11 to D39; Doxorubicin 5 mg/kg i.v.
Procedure: (§1) NCI-H441 cells from ATCC were routinely cultured in RPMI 1640 medium, 10% FCS, 1% L-Glutamine. Cells were split two days before engraftment being in exponential phase of growth. Ten million NCI-H441 cells were engrafted to Athymic nude mice. […] Mice were treated i.p. either with a loading dose of 2 mg of 224G11 Mab/mouse and then twice a week with 1 mg of antibody/mouse or with 4 injections of Doxorubicin (D5, D12, D19, D26) at 5 mg/kg. A third group administered with the combine treatment was also included. Doxorubicin was given by i.v. injections. Tumor volume was measured twice a week and calculated by the formula: π/6×length×width×height and animal weights were monitored every day over the period of Doxorubicin treatment. Statistical analysis was performed at each measured time using either a t-test or a Mann-Whitney test. […] Results are represented in FIG. 46.

[4] = system: NCI-H441; assay: Established xenograft NCI-H441 tumor model, 224G11 alone or with Navelbine (Example 15); format: in vivo, Swiss nude mice; settings: 224G11 2 mg loading then 1 mg twice a week i.p.; Navelbine 8 mg/kg i.p. days 5, 12, 19
Procedure: Briefly, NCI-H441 cells from ATCC were routinely cultured in RPMI 1640 medium, 10% FCS and 1% L-Glutamine. Cells were split two days before engraftment so that they were in exponential phase of growth. Ten million NCI-H441 cells were engrafted in PBS to 7 weeks old Swiss nude mice. […] Mice were treated i.p. with a loading dose of 2 mg of 224G11/mouse and then twice a week, for 43 days, with 1 mg of antibody/mouse. The 9G4 MAb was used as an isotype control.
Navelbine® was given by i.p. injections at a dose of 8 mg/kg on days 5, 12, 19 post-cell injection. For combined therapy with both 224G11 and Navelbine®, the two compounds were administered separately. In this experience the 2 compounds were used at their optimal dosage. Tumor volume was measured twice a week and calculated by the formula: p/6×length×width×height.

[5] = system: NCI-H441; assay: In vivo combination of 224G11 and Docetaxel on NCI-H441 xenograft model; parameters: species or system Athymic nude mice; settings: D11 to D35; Docetaxel 7.5 mg/kg i.p.
Procedure: as §1, with “growth. Nine” for “growth. Ten”, “of Docetaxel” for “of Doxorubicin”, “at 7.5” for “at 5”, “included. Docetaxel” for “included. Doxorubicin”, “by i.p.” for “by i.v.”, “FIG. 47.” for “FIG. 46.”

T1 sequence (P08581 25-932 limits assumed): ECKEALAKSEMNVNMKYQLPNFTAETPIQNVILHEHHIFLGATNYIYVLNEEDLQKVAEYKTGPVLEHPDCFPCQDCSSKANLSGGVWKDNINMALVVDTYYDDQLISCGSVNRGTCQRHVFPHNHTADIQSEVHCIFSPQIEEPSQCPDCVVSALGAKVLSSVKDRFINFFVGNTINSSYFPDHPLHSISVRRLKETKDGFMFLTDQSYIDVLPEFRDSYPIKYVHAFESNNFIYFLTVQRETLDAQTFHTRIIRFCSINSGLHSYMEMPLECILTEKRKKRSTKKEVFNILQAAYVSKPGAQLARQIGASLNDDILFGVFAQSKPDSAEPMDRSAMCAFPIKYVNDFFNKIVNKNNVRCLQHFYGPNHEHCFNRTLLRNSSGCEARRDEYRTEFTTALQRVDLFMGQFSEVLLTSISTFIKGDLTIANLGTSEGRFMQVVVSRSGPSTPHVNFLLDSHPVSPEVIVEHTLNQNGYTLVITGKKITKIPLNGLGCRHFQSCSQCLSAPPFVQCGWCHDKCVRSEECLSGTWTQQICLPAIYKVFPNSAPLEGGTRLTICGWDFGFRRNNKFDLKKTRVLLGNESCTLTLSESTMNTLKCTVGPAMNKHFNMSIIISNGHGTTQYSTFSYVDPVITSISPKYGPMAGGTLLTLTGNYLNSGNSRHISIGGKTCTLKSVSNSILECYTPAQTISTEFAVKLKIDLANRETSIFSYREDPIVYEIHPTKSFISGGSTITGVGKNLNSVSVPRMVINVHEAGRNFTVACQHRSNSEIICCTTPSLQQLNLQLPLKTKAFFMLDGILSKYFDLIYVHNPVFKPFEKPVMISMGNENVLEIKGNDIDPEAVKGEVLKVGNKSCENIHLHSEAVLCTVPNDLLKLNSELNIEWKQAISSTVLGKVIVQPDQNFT

B1: 11E1: murine anti-c-Met monoclonal antibody, IgG1 kappa; heavy chain SEQ ID No. 62, light chain SEQ ID No. 63 (antibody, V domains shown)
VH: QVQLQQSGAELAKPGASVKMSCKASGYTFTSYWMNWVKQRPGQGLEWIGYINPTTGSTDYNQKLKDKATLTADKSSNTAYMQLSSLTSEDSAVYYCAIGGYGSWFAYWGQGTLVTVSA
VL: QIVLTQSPAIMSASPGEKVTLTCSASSSVSSTYLYWYQQKPGSSPKLWIYTTSILASGVPARFSGSGSGTSYSLTISSMETEDAASYFCHQWSSYPFTFGSGTKLDIK
modifications: mus musculus
- BIA/C ratio, 2nd Ab (B) 5D5 ([1]; listed as antibody injected first (A), 5D5 second, 10 μg/ml, below 20% = blocks): 84.2%
- epitope mapping, binding sites ([1]; sequential injections of 5D5 and 11E1 on captured c-Met-Fc): bind clearly to two distant sites

B2: 224G11: murine anti-c-Met monoclonal antibody, IgG1 kappa; heavy chain SEQ ID No. 18, light chain SEQ ID No. 21 (antibody, V domains shown)
VH: EVQLQQSGPELVKPGASVKISCKTSGYIFTAYTMHWVRQSLGESLDWIGGIKPNNGLANYNQKFKGKATLTVDKSSSTAYMDLRSLTSEDSAVYYCARSEITTEFDYWGQGTALTVSS
VL: DIVLTQSPASLAVSLGQRATISCRASESVDSYANSFMHWYQQKPGQPPKLLIYRASNLESGIPARFSGSGSRTDFTLTINPVEADDVATYYCQQSKEDPLTFGSGTKLEMK
modifications: mus musculus
- anti-tumor activity compared to the control group [2]: significant anti-tumor activity
- anti-tumor activity compared to the control group [3]: significant anti-tumor activity
- anti-tumor activity [4]: as efficient as Navelbine®
- anti-tumor activity compared to the control group [5]: significant anti-tumor activity
